Results taken from article PMC7221550, “Membrane Phospholipids and Polyphosphates as Cofactors and Binding Molecules of SERPINA12 (vaspin)” (Molecules, 2020).

Target: Recombinant human kallikrein 7 (KLK7) (human, UniProt P49862 30-253)
Test: cell-based or functional assay

Recombinant human kallikrein 7 (KLK7), sequence (P49862 30-253): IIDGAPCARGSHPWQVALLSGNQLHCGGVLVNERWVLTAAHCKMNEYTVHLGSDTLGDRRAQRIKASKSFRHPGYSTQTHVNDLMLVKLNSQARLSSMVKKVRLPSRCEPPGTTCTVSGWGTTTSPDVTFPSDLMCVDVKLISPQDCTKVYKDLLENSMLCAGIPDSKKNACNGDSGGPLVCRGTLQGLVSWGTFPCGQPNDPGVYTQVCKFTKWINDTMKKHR

B1: Recombinant human vaspin wild type (visceral adipose tissue derived serine protease inhibitor, SERPINA12) (natural protein)
chain: KPSFSPRNYKALSEVQGWKQRMAAKELARQNMDLGFKLLKKLAFYNPGRNIFLSPLSISTAFSMLCLGAQDSTLDEIKQGFNFRKMPEKDLHEGFHYIIHELTQKTQDLKLSIGNTLFIDQRLQPQRKFLEDAKNFYSAETILTNFQNLEMAQKQINDFISQKTHGKINNLIENIDPGTVMLLANYIFFRARWKHEFDPNVTKEEDFFLEKNSSVKVPMMFRSGIYQVGYDDKLSCTILEIPYQKNITAIFILPDEGKLKHLEKGLQVDTFSRWKTLLSRRVVDVSVPRLHMTGTFDLKKTLSYIGVSKIFEEHGDLTKIAPHRSLKVGEAVHKAELKMDERGTEGAAGTGAQTLPMETPLVVKIDKPYLLLIYSEKIPSVLFLGKIVNPIGK
second-order rate constant of KLK7 inhibition by vaspin under pseudo-first-order conditions, x-fold over control, with polyP45 (polyP/serpin ratio of 10:1): 5 fold | second-order rate constant of KLK7 inhibition by vaspin under pseudo-first-order conditions, x-fold over control, with unfractionated heparin (ligand/serpin ratio of 10): 5 fold
